Results on four molecules are retold here after EP2330125A2.

For test [1], the target named is calcitonin receptor. The experiment in a line: calcitonin receptor binding assay.
The target in test [2] is calcitonin receptor. Nature of the test: cell-based or functional assay.
In test [3] the target is T1, CGRP receptor (Homo sapiens (Human)), Q16602.
T1 chain 1: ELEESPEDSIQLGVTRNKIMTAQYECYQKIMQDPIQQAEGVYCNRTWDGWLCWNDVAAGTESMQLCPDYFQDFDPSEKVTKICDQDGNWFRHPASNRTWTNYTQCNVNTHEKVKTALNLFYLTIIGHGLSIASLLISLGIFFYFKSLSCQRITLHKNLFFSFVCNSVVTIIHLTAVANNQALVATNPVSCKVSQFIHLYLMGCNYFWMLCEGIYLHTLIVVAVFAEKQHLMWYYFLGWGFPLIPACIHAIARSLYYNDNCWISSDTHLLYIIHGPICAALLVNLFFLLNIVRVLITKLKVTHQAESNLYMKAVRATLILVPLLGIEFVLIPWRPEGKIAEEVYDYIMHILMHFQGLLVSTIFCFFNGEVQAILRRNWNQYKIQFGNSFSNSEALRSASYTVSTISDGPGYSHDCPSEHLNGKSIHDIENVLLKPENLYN
T1 chain 2: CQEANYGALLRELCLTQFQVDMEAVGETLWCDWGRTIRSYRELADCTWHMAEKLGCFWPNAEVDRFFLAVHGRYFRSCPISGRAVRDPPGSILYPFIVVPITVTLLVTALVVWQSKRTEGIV
Nature of the test: CGRP receptor binding assay.

The target of test [4] is amylin receptor (rat). The experiment in a line: amylin receptor binding assay.
The target in test [5] is calcitonin receptor. The experiment in a line: CT receptor binding assay.
Test [6] has as its target amylin receptor (rat). The experiment in a line: 125I-amylin displacement, rat nucleus accumbens membranes.
In test [7] the target is GLP-1/GIP/CT (receptors of the 'GLP-1/GIP/CT cyclase' assay). The experiment in a line: cell-based or functional assay.

calcitonin receptor, sequence (P30988 whole entry): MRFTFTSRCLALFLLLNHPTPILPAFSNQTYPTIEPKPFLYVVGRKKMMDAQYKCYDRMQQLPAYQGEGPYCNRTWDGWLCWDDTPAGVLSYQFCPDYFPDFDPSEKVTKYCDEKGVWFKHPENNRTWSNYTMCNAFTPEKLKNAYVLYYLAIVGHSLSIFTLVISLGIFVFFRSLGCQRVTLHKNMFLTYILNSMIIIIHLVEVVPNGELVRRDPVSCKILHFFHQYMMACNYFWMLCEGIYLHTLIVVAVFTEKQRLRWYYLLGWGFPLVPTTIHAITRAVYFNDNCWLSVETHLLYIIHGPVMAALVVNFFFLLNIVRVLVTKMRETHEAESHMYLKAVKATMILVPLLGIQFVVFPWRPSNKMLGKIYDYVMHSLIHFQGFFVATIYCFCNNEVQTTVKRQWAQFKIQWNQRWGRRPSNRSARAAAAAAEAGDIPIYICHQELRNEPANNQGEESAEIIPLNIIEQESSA

B1: [#Suc-(bAla)-PYY-(3-36), amide] [#NH-Des-Lys1-Rat Amylin, amide] (peptide)
chain 1: not shown
chain 2: CNTATCATQRLANFLVRSSNNLGPVLPPTNVGSNTY
modifications: not checked
Turning to B1, in the test with calcitonin receptor [1], the Receptor Binding turned out to be 46. Moreover, the CT cyclase with calcitonin receptor [2] came out at 645.

B2: CCK/Amylin-sCT hybrid DF(P-CH2SO3)… … (peptide)
peptide: DFMGWMDFGKRKCNTATCATQRLANELVRLQTYPRTNVGSNTY
modifications: not checked
Take B2: the IC50 in test [3] was 4.4 nM; with amylin receptor (rat) [4], 0.083 nM; with calcitonin receptor [5], 0.044 nM.

B3: 27(p-CH2SO3)-PheCCK8(26-33),G,K,R,15Glu,hAmy(1-17),18Arg,sCT(18-26),hAmy(32-37) (peptide)
peptide: B2 peptide
modifications: not checked
Consider B3, for which the Receptor Binding in the test with calcitonin receptor [1] came out at 0.04.

B4: Rat amylin (peptide)
peptide: KCNTATCATQRLANFLVRSSNNLGPVLPPTNVGSNTY
modifications: not checked
With B4, the Receptor Binding with amylin receptor (rat) [6] stood at 0.05; with calcitonin receptor [1] it was 3. For the same molecule, in the test with calcitonin receptor [2], the CT cyclase worked out at 326. For the same molecule, the GLP-1/GIP/CT cyclase in test [7] was found to be 5.
